Tests used:
Test in all cases: SPR (BIAcore X), E12 thiol-coupled to the chip, chemokine injected
mCCL21 (mouse) = mCCL21 (mouse) (UniProt P84444)
mCCL25 (mouse) = mCCL25 (mouse) (UniProt O35903)
mCCL27 (mouse) = mCCL27 (mouse) (UniProt Q9Z1X0)
mCXCL11 (mouse) = mCXCL11 (mouse) (UniProt Q9JHH5)
mCXCL13 (mouse) = mCXCL13 (mouse) (UniProt O55038)
mCXCL14 (mouse) = mCXCL14 (mouse) (UniProt Q9WUQ5)
mCXCL14 (mouse), sequence (Q9WUQ5 23-99 limits assumed): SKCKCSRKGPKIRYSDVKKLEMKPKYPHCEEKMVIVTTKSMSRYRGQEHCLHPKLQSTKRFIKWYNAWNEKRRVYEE

mCXCL11 (mouse), sequence (Q9JHH5 22-100 limits assumed): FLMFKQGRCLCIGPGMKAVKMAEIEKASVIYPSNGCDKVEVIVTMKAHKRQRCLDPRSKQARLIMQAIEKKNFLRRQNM
mCCL27 (mouse), sequence (Q9Z1X0 26-120 limits assumed): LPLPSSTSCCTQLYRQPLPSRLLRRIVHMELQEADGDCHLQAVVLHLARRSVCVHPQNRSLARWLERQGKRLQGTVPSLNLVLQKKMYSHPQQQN
mCXCL13 (mouse), sequence (O55038 22-109 limits assumed): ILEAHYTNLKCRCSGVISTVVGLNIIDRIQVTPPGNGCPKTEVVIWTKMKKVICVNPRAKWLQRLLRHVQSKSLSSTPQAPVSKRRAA
mCCL21 (mouse), sequence (P84444 24-133): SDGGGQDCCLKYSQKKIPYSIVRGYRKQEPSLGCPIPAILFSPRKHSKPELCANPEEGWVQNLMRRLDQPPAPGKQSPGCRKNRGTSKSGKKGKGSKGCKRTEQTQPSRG
mCCL25 (mouse), sequence (O35903 24-144 limits assumed): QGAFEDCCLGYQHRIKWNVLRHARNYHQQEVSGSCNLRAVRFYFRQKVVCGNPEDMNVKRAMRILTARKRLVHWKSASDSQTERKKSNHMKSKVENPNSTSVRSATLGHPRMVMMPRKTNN

Substance: Purified EV E12 protein
- Kd (mCCL21 (mouse)): 0.5 nM
- Kd (mCCL25 (mouse)): 0.7 nM
- Kd (mCCL27 (mouse)): 2 nM
- Kd (mCXCL11 (mouse)): 1 nM
- Kd (mCXCL13 (mouse)): 1.5 nM
- Kd (mCXCL14 (mouse)): 1.5 nM
